Results reported in publication PMC11898079, “Single-Molecule Imaging of Wood Xylans on Surfaces and Their Interaction with GH11 Xylanase” (Biomacromolecules, 2025).
Several values for one entry are separate records, joined by “and”; a condition that tells them apart may be missing. Equal entries are not always repeated.

Molecular target: the molecule itself
Assay: high-speed atomic force microscopy (HS-AFM); xylanase alone on a clean mica surface, tapping mode, 100 mM sodium phosphate buffer pH 6; 2 uL of 12.5 ug/mL xylanase added into 80 uL buffer during imaging; self-association seen as transient dimers and trimers of single molecules on the surface

B1: Endo-1,4-β-D-xylanase from Neocallimastix patriciarum (GH11) (enzyme)
chain: AEFQSFCSSASHSGQSVKVTGNKVGTIGGVGYELWADSGNNSATFYSDGSFSCTFQNAGDYLCRSGLSFDSTKTPSQIGRMKADFKLVKQNSSNVGYSYVGVYGWTRSPLVEYYIVDNWLSPFPPGDWVGNKKHGSFTIDGAQYTVYENTRTGPSIDGDTTFNQYFSIRQQARDCGTIDISAHFDQWEKLGMTMGKLHEAKVLGEAGNVNGGASGTADFPYAKVYIGD
notes: Endo-1,4-β-D-xylanase, glycoside hydrolase family 11, Neocallimastix patriciarum; printed Mw 25,800 g/mol; Commercial enzyme; also called GH11 xylanase; GH11 endoxylanase; source: bought: Megazyme Ltd
In the case of B1, the “stoichiometry N” value is reported as 2 and 3.
